The source of these data is article PMC7135739.

Where two headings read alike, the source gives them in different places.

What all share (assay): microtiter plate binding assay
The target in assay [1] is Rabbit skeletal muscle myosin (rabbit) (UniProt Q28641).
Assay [2] concerns the target Bovine cardiac myosin (bovine) (UniProt Q9BE39).
The target is the same in assay [3]. This is another data set of the same source.

Chain of UniProt Q28641 (Q28641 whole entry, chain 1 of 3): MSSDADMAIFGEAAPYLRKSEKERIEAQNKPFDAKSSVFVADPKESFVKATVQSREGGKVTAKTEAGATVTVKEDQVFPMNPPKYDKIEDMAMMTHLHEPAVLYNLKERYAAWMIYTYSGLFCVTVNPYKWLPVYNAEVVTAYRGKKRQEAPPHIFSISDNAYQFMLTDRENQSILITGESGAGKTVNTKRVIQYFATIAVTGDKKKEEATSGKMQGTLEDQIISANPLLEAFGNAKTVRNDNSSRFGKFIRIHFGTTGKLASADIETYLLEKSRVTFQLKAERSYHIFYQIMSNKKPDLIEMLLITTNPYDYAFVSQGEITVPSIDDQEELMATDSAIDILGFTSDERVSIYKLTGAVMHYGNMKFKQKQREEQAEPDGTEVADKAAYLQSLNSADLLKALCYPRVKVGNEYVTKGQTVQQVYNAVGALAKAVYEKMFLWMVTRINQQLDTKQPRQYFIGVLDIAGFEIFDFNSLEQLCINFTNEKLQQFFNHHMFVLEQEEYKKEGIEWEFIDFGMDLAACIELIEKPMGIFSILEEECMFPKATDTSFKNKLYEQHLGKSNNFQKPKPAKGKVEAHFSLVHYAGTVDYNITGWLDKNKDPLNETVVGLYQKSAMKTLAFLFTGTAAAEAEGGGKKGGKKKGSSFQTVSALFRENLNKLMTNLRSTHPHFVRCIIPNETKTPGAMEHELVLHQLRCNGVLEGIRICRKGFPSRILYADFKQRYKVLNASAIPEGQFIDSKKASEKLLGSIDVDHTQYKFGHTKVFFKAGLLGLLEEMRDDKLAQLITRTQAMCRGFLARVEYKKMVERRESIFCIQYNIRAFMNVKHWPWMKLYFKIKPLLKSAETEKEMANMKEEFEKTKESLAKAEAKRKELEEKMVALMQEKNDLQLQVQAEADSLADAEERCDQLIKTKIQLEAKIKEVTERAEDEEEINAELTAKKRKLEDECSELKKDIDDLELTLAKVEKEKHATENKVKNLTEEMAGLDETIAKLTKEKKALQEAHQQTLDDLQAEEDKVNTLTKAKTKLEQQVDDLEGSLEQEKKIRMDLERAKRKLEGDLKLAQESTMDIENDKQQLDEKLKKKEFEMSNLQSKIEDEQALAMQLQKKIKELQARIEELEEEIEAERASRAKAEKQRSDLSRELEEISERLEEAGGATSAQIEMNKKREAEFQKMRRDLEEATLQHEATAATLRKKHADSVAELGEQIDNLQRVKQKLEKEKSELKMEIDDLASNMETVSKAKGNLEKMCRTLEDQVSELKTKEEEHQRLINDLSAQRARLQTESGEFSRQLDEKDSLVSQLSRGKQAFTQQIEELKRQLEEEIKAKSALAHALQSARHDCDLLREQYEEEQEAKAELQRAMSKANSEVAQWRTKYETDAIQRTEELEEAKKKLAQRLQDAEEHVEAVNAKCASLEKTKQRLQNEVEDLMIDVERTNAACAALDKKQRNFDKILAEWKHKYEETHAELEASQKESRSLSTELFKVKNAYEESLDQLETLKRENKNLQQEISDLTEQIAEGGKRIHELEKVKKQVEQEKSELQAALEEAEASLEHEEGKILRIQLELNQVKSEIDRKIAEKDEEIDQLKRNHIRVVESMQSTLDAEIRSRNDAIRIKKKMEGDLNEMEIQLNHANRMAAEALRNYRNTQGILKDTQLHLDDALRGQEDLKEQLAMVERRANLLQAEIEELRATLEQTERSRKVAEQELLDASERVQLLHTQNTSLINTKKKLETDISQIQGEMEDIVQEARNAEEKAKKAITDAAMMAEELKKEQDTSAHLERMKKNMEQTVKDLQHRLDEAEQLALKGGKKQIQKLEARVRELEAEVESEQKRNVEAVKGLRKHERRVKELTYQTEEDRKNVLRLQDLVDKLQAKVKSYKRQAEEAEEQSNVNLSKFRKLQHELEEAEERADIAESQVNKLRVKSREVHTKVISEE
Chain of UniProt Q28641 (P02602 2-192, chain 2 of 3, further chain): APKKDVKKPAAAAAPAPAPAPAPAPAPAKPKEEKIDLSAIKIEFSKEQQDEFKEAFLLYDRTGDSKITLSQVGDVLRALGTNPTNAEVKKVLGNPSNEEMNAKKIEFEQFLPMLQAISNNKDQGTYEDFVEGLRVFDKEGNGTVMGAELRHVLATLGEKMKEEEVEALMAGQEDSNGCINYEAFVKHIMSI
Chain of UniProt Q28641 (P02608 2-170, chain 3 of 3, further chain): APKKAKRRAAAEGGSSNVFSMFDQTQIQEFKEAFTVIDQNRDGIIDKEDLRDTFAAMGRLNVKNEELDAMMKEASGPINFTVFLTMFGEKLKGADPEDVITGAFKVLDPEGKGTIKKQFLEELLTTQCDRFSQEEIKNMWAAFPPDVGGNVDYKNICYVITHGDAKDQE

As to Human factor Xa (enzyme), the figures for the dissociation constant Kd in assay [1], in assay [2] and in assay [3] were 80.4 nM, 108 nM and 21 nM, respectively.
